Experiment [1] deals with His6x-MotE (mature form of MotE of Cereibacter sphaeroides) (Cereibacter sphaeroides). Description: non-reducing SDS-PAGE; purified His6x-MotE, loading buffer without or with beta-mercaptoethanol, Coomassie blue stain; monomer to disulfide-linked dimer.
Experiment [2] concerns the target MotE, endogenous in Cereibacter sphaeroides AM1 (Cereibacter sphaeroides (endogenous in AM1)). Description: non-reducing SDS-PAGE; total cell extracts of AM1 prepared without or with beta-mercaptoethanol, immunodetection with anti-MotE; monomer to disulfide-linked dimer.

Here are results for two substances from PMC10954123.

A word on the stoichiometry N: it is a count of units in the complex or per binding partner.

The substance “His6x-MotE (mature form of MotE of Cereibacter sphaeroides) (natural protein)” yielded a stoichiometry N in experiment [1] of 2.

“MotE, endogenous in Cereibacter sphaeroides AM1 (natural protein)”: the stoichiometry N in experiment [2] turned out to be 2.
